The Kd is the constant that tells how readily two partners part at equilibrium.

The source of these data is paper PMC11099923.

Test [1] addresses human α7nAChR deletion mutant Δ419-423, His-tagged (human) (UniProt P36544). The experiment in a line: pull-down; His-tag α7nAChR (~3 μM) as bait mixed with strep-tag PICK1 PDZ (~10 μM), Ni-NTA resin, overnight at 4°C, 10 mM phosphate pH 7.8, 150 mM NaCl, 0.05% LDAO, two washes with 50 mM imidazole, elution with 500 mM imidazole, SDS-PAGE, band intensities.
Test [2] addresses human α7nAChR deletion mutant Δ428-432, His-tagged (human) (UniProt P36544). Described as above.
A further test deals with α7nAChR (Homo sapiens) (UniProt P36544). The conditions noted are these: cited from earlier work.

Regarding “PDZ domain of human PICK1 (Protein Interacting with C-kinase 1), strep-tagged (from UniProt Q9NRD5 19-110) (domain or fragment)”, the results for the reduction of pulldown compared to WT α7nAChR in test [1] and in test [2] were 50% and 85%, respectively.

As for PICK1 PDZ (from UniProt Q9NRD5), the Kd with α7nAChR (Homo sapiens) was 3000 nM.
